Two molecules from publication PMC11784390, “Conformational changes in and translocation of small proteins: insights into the ejection mechanism of podophages” (Journal of Virology, 2024) can be followed below.

The target of series [1] is T1, portal protein gp8 (bacteriophage T7, UniProt P03728 1-536).
T1 construct: portal protein gp8 of bacteriophage T7, as it stands in the virion; Native virion protein; also called dodecameric portal; source: T7 virions propagated in E. coli, purified (PEG precipitation, CsCl ultracentrifugation); copies: 12
T1 sequence (looked up): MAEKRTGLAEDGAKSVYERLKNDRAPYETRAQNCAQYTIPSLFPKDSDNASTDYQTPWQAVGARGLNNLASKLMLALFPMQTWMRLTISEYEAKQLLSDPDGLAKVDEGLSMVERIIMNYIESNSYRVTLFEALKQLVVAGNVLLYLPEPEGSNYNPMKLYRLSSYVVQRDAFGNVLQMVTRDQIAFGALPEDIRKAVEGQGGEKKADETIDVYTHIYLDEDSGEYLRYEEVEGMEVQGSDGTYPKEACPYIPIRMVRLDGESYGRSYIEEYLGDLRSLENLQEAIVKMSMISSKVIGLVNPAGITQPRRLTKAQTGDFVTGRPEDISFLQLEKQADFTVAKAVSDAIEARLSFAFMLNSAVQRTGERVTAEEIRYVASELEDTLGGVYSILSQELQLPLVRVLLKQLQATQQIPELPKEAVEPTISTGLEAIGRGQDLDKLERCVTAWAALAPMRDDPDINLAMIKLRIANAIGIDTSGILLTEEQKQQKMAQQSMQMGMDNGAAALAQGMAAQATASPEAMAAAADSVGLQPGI
The series is described as follows: cryo-EM structure; DNA-ejected T7: purified mature T7 incubated with rough LPS (250 µg/mL) at 37°C for 3 h; entire particle asymmetric 8.2 Å; portal–tail complex 3.5 Å (six-fold). Conditions: both partners purified.

The target in series [2] is T2, nozzle protein gp12 (bacteriophage T7, UniProt P03747 1-794).
T2 construct: nozzle protein gp12 of bacteriophage T7, as it stands in the virion; Native virion protein; also called tail nozzle; source: T7 virions propagated in E. coli, purified (PEG precipitation, CsCl ultracentrifugation)
T2 sequence (looked up): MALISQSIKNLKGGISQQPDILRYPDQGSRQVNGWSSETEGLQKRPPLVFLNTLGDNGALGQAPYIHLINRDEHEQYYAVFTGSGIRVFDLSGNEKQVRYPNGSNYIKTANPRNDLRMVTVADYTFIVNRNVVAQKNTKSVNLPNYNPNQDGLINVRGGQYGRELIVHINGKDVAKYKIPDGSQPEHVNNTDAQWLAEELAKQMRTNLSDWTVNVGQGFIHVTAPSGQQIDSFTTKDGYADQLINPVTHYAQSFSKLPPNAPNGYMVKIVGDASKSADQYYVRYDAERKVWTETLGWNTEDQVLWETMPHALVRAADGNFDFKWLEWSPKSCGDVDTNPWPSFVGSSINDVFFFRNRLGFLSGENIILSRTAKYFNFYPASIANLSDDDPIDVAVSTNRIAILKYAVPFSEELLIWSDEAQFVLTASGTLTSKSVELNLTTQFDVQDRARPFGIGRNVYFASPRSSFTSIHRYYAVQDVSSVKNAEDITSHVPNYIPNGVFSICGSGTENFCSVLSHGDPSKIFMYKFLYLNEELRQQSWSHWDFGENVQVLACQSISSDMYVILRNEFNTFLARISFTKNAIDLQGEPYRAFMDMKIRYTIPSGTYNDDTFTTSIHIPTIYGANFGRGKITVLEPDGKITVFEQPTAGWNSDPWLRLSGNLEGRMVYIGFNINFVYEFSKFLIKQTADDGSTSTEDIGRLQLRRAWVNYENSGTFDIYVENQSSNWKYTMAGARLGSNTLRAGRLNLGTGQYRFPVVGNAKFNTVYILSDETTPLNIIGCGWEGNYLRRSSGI
Described as above. The settings on record: both partners purified.

Series [3] concerns the molecule itself. The experiment in a line: cryo-EM structure; mature T7 virions, in situ; entire particle asymmetric 6.1 Å; local reconstructions of core complex 3 Å (four-fold), portal 2.5 Å (twelve-fold), portal–tail complex 2.7 Å (six-fold).
Series [4] concerns the target T3, core protein gp16 (bacteriophage T7, UniProt P03726 1-1318).
T3 construct: core protein gp16 of bacteriophage T7, as it stands in the mature virion; Four-fold ring in the core of mature T7; source: T7 virions propagated in E. coli, purified (PEG precipitation, CsCl ultracentrifugation)
T3 sequence (looked up): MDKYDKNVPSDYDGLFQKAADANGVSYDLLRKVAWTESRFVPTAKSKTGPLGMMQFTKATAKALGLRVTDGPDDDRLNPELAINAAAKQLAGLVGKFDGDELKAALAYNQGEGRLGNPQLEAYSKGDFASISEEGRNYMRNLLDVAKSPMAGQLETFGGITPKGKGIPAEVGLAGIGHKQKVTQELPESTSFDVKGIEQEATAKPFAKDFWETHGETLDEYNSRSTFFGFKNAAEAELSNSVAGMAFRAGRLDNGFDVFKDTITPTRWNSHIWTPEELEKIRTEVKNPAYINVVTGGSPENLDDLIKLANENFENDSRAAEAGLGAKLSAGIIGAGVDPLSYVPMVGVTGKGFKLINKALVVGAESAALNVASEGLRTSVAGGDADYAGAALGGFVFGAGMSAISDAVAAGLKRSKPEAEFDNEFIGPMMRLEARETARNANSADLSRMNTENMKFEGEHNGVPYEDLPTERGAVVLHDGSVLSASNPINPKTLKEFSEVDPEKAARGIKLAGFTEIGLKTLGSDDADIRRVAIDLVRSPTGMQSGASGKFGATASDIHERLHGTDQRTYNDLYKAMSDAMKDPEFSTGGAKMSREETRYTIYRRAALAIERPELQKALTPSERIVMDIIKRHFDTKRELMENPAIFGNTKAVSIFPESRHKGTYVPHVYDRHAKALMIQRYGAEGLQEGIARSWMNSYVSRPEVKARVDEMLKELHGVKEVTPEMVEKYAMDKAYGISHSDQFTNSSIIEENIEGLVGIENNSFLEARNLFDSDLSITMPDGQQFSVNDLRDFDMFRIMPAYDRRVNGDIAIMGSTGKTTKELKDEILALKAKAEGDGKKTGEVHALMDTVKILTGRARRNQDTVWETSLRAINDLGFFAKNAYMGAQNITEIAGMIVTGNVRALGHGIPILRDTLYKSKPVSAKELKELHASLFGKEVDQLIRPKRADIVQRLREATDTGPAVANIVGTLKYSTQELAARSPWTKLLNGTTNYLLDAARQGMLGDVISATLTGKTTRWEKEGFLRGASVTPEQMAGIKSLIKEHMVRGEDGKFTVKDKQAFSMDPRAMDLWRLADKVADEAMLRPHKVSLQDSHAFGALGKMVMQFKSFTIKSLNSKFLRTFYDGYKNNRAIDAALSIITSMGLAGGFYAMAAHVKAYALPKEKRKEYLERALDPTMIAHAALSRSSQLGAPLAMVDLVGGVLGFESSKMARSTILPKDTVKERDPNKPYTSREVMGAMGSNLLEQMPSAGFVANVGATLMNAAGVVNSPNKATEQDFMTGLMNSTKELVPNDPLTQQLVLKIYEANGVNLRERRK
Described as above. The settings on record: both partners purified.

B1: adaptor protein gp11 (natural protein, bacteriophage T7, UniProt P03746 1-196, looked up)
chain: MRSYDMNVETAAELSAVNDILASIGEPPVSTLEGDANADAANARRILNKINRQIQSRGWTFNIEEGITLLPDVYSNLIVYSDDYLSLMSTSGQSIYVNRGGYVYDRTSQSDRFDSGITVNIIRLRDYDEMPECFRYWIVTKASRQFNNRFFGAPEVEGVLQEEEDEARRLCMEYEMDYGGYNMLDGDAFTSGLLTR
notes: adaptor protein gp11 of bacteriophage T7, as it stands in the virion; Native virion protein; source: T7 virions propagated in E. coli, purified (PEG precipitation, CsCl ultracentrifugation); copies: 12
Regarding B1, the binding result in series [1] and in series [2] was “binds” in each case. For the same molecule, the stoichiometry N (as a rule, a count of units in the complex or per binding partner) in series [3] came to 12.

B2: core protein gp15 (natural protein, bacteriophage T7, UniProt P03725 1-747, looked up)
chain: MSKIESALQAAQPGLSRLRGGAGGMGYRAATTQAEQPRSSLLDTIGRFAKAGADMYTAKEQRARDLADERSNEIIRKLTPEQRREALNNGTLLYQDDPYAMEALRVKTGRNAAYLVDDDVMQKIKEGVFRTREEMEEYRHSRLQEGAKVYAEQFGIDPEDVDYQRGFNGDITERNISLYGAHDNFLSQQAQKGAIMNSRVELNGVLQDPDMLRRPDSADFFEKYIDNGLVTGAIPSDAQATQLISQAFSDASSRAGGADFLMRVGDKKVTLNGATTTYRELIGEEQWNALMVTAQRSQFETDAKLNEQYRLKINSALNQEDPRTAWEMLQGIKAELDKVQPDEQMTPQREWLISAQEQVQNQMNAWTKAQAKALDDSMKSMNKLDVIDKQFQKRINGEWVSTDFKDMPVNENTGEFKHSDMVNYANKKLAEIDSMDIPDGAKDAMKLKYLQADSKDGAFRTAIGTMVTDAGQEWSAAVINGKLPERTPAMDALRRIRNADPQLIAALYPDQAELFLTMDMMDKQGIDPQVILDADRLTVKRSKEQRFEDDKAFESALNASKAPEIARMPASLRESARKIYDSVKYRSGNESMAMEQMTKFLKESTYTFTGDDVDGDTVGVIPKNMMQVNSDPKSWEQGRDILEEARKGIIASNPWITNKQLTMYSQGDSIYLMDTTGQVRVRYDKELLSKVWSENQKKLEEKAREKALADVNKRAPIVAATKAREAAAKRVREKRKQTPKFIYGRKE
notes: core protein gp15 of bacteriophage T7, as it stands in the mature virion; Eight-fold ring in the core of mature T7; source: T7 virions propagated in E. coli, purified (PEG precipitation, CsCl ultracentrifugation)
On to B2, for which the binding result in series [4] is “binds”. In series [3], the “stoichiometry N” value came out at 8.
